From PMC7781312 (bioRxiv, 2021)

Target: prefusion-stabilized SARS-CoV S ectodomain trimer (SARS-CoV 2P S) (SARS-CoV Urbani (AAP13441), UniProt P59594, stabilised)
Assay: BLI

B1: B6 monoclonal antibody (recombinant IgG with human constant regions) (antibody, V domains shown)
VH: EVQLQQSGPVLVKPGASVRMSCKASGYTITDYYLNWVKQSHGKSLEWLGVLNPYSGGSLYSQTFKGKATLTVDRSSSTAYLELNSLTSEDSAVYYCARQLGRGNGLDYWGQGTSVTVSS
VL: NIMMTQSPSSLAVSAGEKVTMSCKSSQSVLHSSDQKNYLAWYQQKPGQSPKLLIYWASTRESGVPDRFTGSGSGTDFTLTISSVQAEDLAVYFCHQYLSSYTFGGGTKLEIK
- binding result: binds
